# B1: brain-derived neurotrophic factor (protein, UniProt P23560 19-247, looked up)
# Neurotrophic factor BDNF …: APMKEANIRGQGGLAYPGVRTHGTLESVNGPKAGSRGLTSLADTFEHVIEELLDEDQKVRPNEENNKDADLYTSRVMLSSQVPLEPPLLFLLEEYKNYLDAANMSMRVRRHSDPARRGELSVCDSISEWVTAADKKTAVDMSGGTVTVLEKVPVSKGQLKQYFYETKCNPMGYTKEGCRGIDKRHWNSQCRTTQSYVRALTMDSKKRIGWRFIRIDTSCVCTLTIKRGR
# notes: brain-derived neurotrophic factor (50 ng/ml) added to the Basic induction medium
# Tested on: human MSCs
# Assay: Intracellular FACS analysis of TH expression
# Assay type: cell-based
# Settings: none of the untreated cells
# Method: Induction of differentiation: The differentiation protocol was composed of 2 steps. In step 1, cells were transferred to serum-free medium (DMEM) supplemented with 2 mM glutamine, 100 μg/ml streptomycin, 100 units/ml penicillin, 12.5 units/ml nystatin (Biological Industries), N2 supplement (Invitrogen, New Haven, Conn.) and 20 ng/ml fibroblast growth factor 2 and epidermal growth factor (both from R&D Systems, Minneapolis, Minn.) for 48-72 hours. In step 2, the medium was changed to Basic induction medium containing Neurobasal, B27 (both from Invitrogen), in addition to 1 mM dibutyryl cyclic AMP (dbcAMP), 3-isobutyl-1-methyl-xanthine (IBMX), and 200 μM ascorbic acid (all from Sigma, St Louis, Mo.). […]
# Intracellular fluorescence-activated cell sorter (FACS) analysis: Cells were harvested from the tissue culture flasks, centrifuged, and resuspended in phosphate-buffered saline (PBS). […] The results were analyzed with CellQuest software. […]
molecule,measurement,value
B1,induced cells expressing the TH protein at a detectable level,More than 30%

# — patent publication US20090257987A1, “Method of generating dopamine-secreting cells” (Ramot At Tel Aviv University Ltd., priority 2008, published 2009)
